Target: T1, human c-Met/Fc fusion protein (R&D Systems) (human, UniProt P08581 25-932)
T1 construct: Bought reagent; also called human c-Met/Fc protein; not shown: Fc part of the bought fusion
Assay: ELISA, human c-Met/Fc fusion protein coated at 2 µg/mL, hybridoma culture, anti-mouse IgG-HRP
Procedure: Human c-Met/Fc fusion protein was seeded in an amount of 50 μL (2 μg/mL)/well to microtiter plates and allowed to adhere to the surface of each well. The antibody that remained unbound was removed by washing.
The hybridoma cell culture obtained in Reference Example 1.1.2 was added in an amount of 50 μL to each well of the plates and incubated for 1 hour. The cells remaining unreacted were washed out with a sufficient amount of Tris-buffered saline and Tween 20 (TBST). Goat anti-mouse IgG-horseradish peroxidase (HRP) was added to the plates and incubated for 1 hour at room temperature. The plates were washed with a sufficient amount of TBST, followed by reacting the peroxidase with a substrate (OPD). Absorbance at 450 nm was measured on an ELISA reader.

T1 sequence (P08581 25-932 limits assumed): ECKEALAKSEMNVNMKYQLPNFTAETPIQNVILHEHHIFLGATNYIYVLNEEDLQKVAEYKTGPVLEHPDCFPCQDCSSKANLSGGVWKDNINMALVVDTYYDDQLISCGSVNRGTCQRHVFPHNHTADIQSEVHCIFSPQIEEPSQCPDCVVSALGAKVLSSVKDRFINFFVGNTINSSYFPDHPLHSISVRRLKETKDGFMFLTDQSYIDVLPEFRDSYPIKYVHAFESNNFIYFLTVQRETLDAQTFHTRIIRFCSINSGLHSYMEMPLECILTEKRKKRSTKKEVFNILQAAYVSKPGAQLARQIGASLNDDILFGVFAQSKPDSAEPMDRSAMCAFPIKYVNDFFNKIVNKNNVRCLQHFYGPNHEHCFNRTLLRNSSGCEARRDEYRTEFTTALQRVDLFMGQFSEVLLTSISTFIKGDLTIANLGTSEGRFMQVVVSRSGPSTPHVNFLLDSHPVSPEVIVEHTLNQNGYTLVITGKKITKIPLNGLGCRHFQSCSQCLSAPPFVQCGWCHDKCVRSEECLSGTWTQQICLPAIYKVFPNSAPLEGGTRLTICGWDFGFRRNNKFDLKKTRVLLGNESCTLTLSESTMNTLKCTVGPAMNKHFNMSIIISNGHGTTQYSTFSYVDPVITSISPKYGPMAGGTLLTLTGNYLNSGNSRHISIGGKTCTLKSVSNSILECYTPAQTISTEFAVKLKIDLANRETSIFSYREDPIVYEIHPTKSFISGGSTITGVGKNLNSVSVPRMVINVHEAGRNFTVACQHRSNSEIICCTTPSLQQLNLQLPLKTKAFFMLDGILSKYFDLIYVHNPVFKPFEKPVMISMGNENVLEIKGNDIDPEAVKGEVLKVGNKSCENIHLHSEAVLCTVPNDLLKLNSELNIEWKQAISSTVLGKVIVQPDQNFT

B1: AbF46, mouse monoclonal antibody to c-Met (hybridoma KCLRF-BP-00220) (antibody, V domains shown)
VH: EVKLVESGGGLVQPGGSLRLSCATSGFTFTDYYMSWVRQPPGKALEWLGFIRNKANGYTTEYSASVKGRFTISRDNSQSILYLQMDTLRAEDSATYYCARDNWFAYWGQGTLVTVSA
VL: DILMTQSPSSLTVSAGEKVTMSCKSSQSLLASGNQNNYLAWHQQKPGRSPKMLIIWASTRVSGVPDRFIGSGSGTDFTLTINSVQAEDLAVYYCQQSYSAPLTFGAGTKLELK
notes: Tested as hybridoma culture supernatant in the screening ELISA; also called mouse antibody AbF46
binding result: binds

From US20150197542A1 (SAMSUNG ELECTRONICS, published 2015)
